Experimental data as given in the DeepSol protein solubility set.

Assay: soluble on expression in E. coli; label from the status in PepcDB or PDB records

Row | Sequence | soluble on expression in E. coli
1 | MNATINDDDIDDVKKALDHATQAAHKAAAELTAKLRSDFVEYGNGGTAGQVLIHIYGPGLIYGFSAFPVQIRLEIPNQPVPFNKVHITEVTAYVIDENNRTYWTRVWNSSTFRQGGYIADTLDLVTVMKAPDPLVYQIRDAIVTGQISRELYDKIWNTSTTHFEIRVIVKGYQEAWKTDSSVSNQSSCPSDGHWYEDACWVHDKDIDFTLKAETTTAWGHVTGTNDVATIDGGMLGSLPIKFLQSLDLSGKWVLYQNKYAGALSDFIIITAASPVHVLNSTAMYKFLITPNPGYFQPANPKISDEYRFVTLRVIEGGRMELADTTTGHIGDLTEPTFFGLTAHYTDAPGTLDYHALGLVYAYVERDDGVKIPIWLAAEPMISVLSNTYTVMKDQDVKNLIDLYKKKDREKINATTKAMINSLQEKIDEAEQLLAKAKGMNNENAIEYAQGAIDEYKAAINDLQKAAQQDDYQMFLNYLNAAKKHEMAGDYYVNAARKALNGDLEQAKIDAEKAKEYSNLAKEYEPG | soluble
2 | MSLVMWLMAHSEKLEDLLEGKPVVIIEDGELAWSKLNNSNMTEFEFFMELRLRGVEQLGQVRLAILETNGQISVYFFEDDKVKPGLLILPSDCTQRYKVVPESADYACIRCSEIIHMNAGEKQLCPRCANPEWTKASRAKRVTEGHHHHHH | soluble
3 | MQTSLRAPTLEKVSSRPRGSRRRSRKTFTAKLTSPTFRRWSSTEKWTVASREIGSARKRFCSTRTPGAAIHSSNRSRSALRYDHIDHRALARKSPHLMPPTFIKEEIMDDELDEVKEEVVSVGEAALPTPKVELNMDHPEKDLIISISVYLGYTRTLQYHEIRLGRLMKITDRLELTGDHTLRDLKNAFSCPIDFSFSDDFSEKKPSFKDMAKNKWPSTMFFIHDTDESHVNVEFPRRLVERNFRRIACDTCKEASAHWMIVDHDNLLPNSPGYLCSSCYKEFCFDVNGNKVCQFKAVPYCDRKDIGDGRQFFTELDL | not soluble
4 | VSIKKSSGLNFDNTAIAINAGKGLEFDTNTSESPDINPIKTKIGSGIDYNENGAMITKLGAGLSFDNSGAITIGNKNDDKGSGYIPEAPRDGQAYVRKDGEWVLLSTFL | soluble
5 | GSHMRSEFASGNTYALYVRDTLQPGMRVRMLDDYEEISAGDEGEFRQSNNGVPPVQVFWESTGRTYWVHWHMLEILGFEEDIEDMVEADEYQGAVASRVLGRALP | soluble
6 | METRRDERIGRLAQALKKTDKLHLKDAAQLLGVSEMTVRRDLNADSTSVMLLGGYVVSDLKNNGVTNYFVSDQQTKHVREKQAIGTAAAYLVEANDTVFFDCGTTIPFIIDAIPDELLFTAICYSLNTFLALQEKKACRVILCGGEYHPDNAIFTPLNQRCELDNICPNKAFISAAGIELNAGATCFNFAELGMKQRAMATAQRIIIVADNSKFGQIKRACIGPMTLFDTVISDSAPSEPYLRYFSNNGIQLIHPGNLEHHHHHH | soluble
7 | MDKKSKLINLLKEVGCIRFGEFILASGKKSNYYIDIKKATTNPEILKLVGEIIAEQIKDEDVKVAGVELGSVPIATAVSIIAQKPLLIVRKKPKDYGTKNKIEGELKEGDKVVIVEDVTTTGGSVLKAVKEIRENGGIVDKVFVVVDRLEGAKENLQKENVELIPLVTVKELQSTQ | soluble
8 | MSLDQEQNVSLLVAGDHELLRDAISEILRREGGFSVEVTGSREGVLKQIEERGGFDVILLDLQMPGMSGLDSLREVATSNANGAVAILAGELTRDVVMSAFKAGARGYIPKTLPLRALPIALRLIASGESYVPAWLTNGGGTTQADGPSFDLLPEELQILEEVSDGRTNKQIAFTLNVTEGAIKMKMRAICMKLGAKNRTHAVVIARQHMMLREGHHHHHH | soluble
9 | MNTAHGSDVTRPLDWLVSNFASDVPGVSHAVLVSADGLLMAASAHLPIDRAEQLAAVTSGLASLSAGVSRLFEGGGVLQSVVEMQHGYLLLMSVGDGSHLATLTDAECDIGQVGYEMAILVDRVGASVQATARTPQGL | not soluble
10 | SMNSNMGSDSGTMGSDSDEENVAARASPEPELQLRPYQMEVAQPALEGKNIIICLPTGSGKTRVAVYIAKDHLDKKKKASEPGKVIVLVNKVLLVEQLFRKEFQPFLKKWYRVIGLSGDTQLKISFPEVVKSCDIIISTAQILENSLLNLENGEDAGVQLSDFSLIIIDECHHTNKEAVYNNIMRHYLMQKLKNNRLKKENKPVIPLPQILGLTAS | soluble
11 | MIVLNCIRYLGMTDINEIGRLTLYEYDLLMTGKALAAVDESHKAHKQAWINHQVTATKLVGGKKNKKEVPVYKKFKDFFDYEEEIRKITQEIDEGYDKKGMDLLLKANL | not soluble
12 | MGSDKIHHHHHHMKKIAIFLPDLRAGGAEKVALLLSNEFVQKGCAVDVILCTAHGEFLSELDTRINVVDLKSPRLRNAFFPLLRYLKAERPDVLLALMWPLTLLAVTAFKFAKLPGRVVVSDHTTFSQAPLLKKKSTRIFFKLSLPMVYSFANARLAVSEGVANDLATLGNIKRSSITVLHNPVSSDTMRFTKEQNEESWQGFSGKKIVAVGALKWEKDYPTLLKAFALLLKKENAYLSIVGQGTLLSELEAIAEQLGIRKQVNFAGFSTMPSAWMASADLLVLSSSCEGFGNVIVESLDVGTAVVSTDCKSGPREILCDGKYGKLVPVGDVDALAQAMVESLNEQHDMDALKLRAAKFSVDKIAKQYLEVFR | not soluble
13 | MSLSKLGYIPNQAARTLITNKTLTIGLIQKSSAPEIRQNPFNSDVLNGINQACNVRGYSTRMTVSENSGDLYHEVKTMIQSKSVDGFILLYSLKDDPIEHLLNEFKVPYLIVGKSLNYENIIHIDNDNIDAAYQLTQYLYHLGHRHILFLQESGHYAVTEDRSVGFKQYCDDVKISNDCVVIKSMNDLRDFIKQYCIDASHMPSVIITSDVMLNMQLLNVLYEYQLRIPEDIQTATFNTSFLTENATPSQTSVNINPDVLGFTAGNTIIDVLRNETISFREKLISTQIVERVSTTKIEGHHHHHH | soluble
14 | MSLRVTLTDVARAAGVSKSTVSLVLNDSSLIKKETQQKVQQAIEQLGYVYNRFAANLRSQKSLTIGVVIDDLINPFFAEFTMGLEMTLAEHGFITVMSNTSQRSDRQKQVLDTLLEHHVAGIVLCPVNSTSEADLQRYANSSTPLLITMRPLDWQQLPVDYVGVDSHAGVREATEYLIQQGHRDIVFIGGLTHHMRYQGYLEAMNHHGLQPWSTDAFSLRAEPTQANGYQLMQQLLDMPSPPTAVICYNDLMAFGAESALGERGLFAGEDISLIGNDGVAACAYSNPPLTTIAVEPLALGKQAAQQILRRIAQPDAPLSHYIYRPTLQIRASTGKEGHHHHHH | soluble
15 | MSLHLALLMRGGDPHCILDFGAGNGELCKLIALQFCYEPTPSLMAEAKENLADLPQISFCSDLEKISDGSVELIFCLEVFEHLPEKETKDALGQFDRLLTDNGNAVIGVPVEIGIPALYKGIFRMSRRFNTFDASIKNVLLAALSFPPKDRPVSEITPGFAFHHEHMGFDYRKLQALLHAQFGLQQVTTSPFSIFGPWLNPEVNFLIQKANPAVNADAAR | not soluble
16 | MSLIARDAHEGQFRSSGEPYITHPVAVASIIAQLHLDHEAVMAALLHDVIEDTPYTEEQLKEEFGASVAEIVDGVSKLDKLKFRTRQEAQVENFRKMILAMTRDIRVVLIKLADRTHNMRTLGSLRPDKRRRIAKETLEIYCPLAHRLGIEHIKNELEDLSFQAMHPHRYEVLKKLVDVARSNRQDLIERISQEIKVRLENSGIFARVWGREKHLYKIYQKMRIKDQEFHSIMDIYAFRVIVKNVDDCYRVLGQMHNLYKPRPGRVKDYIAVPKANGYQSLQTSMIGPKGVPVEVHIHTEDMEQVAEMGITAHWVYKENGKNDSTTAQIRVQRWLQSLVEIQQSVGNSFEFIENVKSEFFPKEIYVFTPKGRIVELPMGATAVDFAYAVHSDVGNTCVGVTVEHKPYPLSKALESGQTVNIITDPNAHPEVAWLNFVVTARAKTRIRHYLKQRCEEDAVKLGEVELNVALQPHNLGDFSIQQIRTVLDALALSSLDELLREIGLGNQSASMIAHQFVGVPLESANTKNLEFESKILTIAPMQVGKTQFAQCCHPILGDPIVGCCTEKNTVVVHHQHCASLKNACRQSLAKWDNVQSAVNFEAELQIEILNEQNALLSLMTAISASESSLQNIWTEELENNLLLVILQVCVKDIKHLANIVHRIKGITGVVNVKRNINELEGHHHHHH | not soluble
